# According to patent publication US20040175379A1:
# Target: biotinylated EpoR (Abbott CHO cell derived ref.#RB69084:4) (UniProt P19235)
# Experiment: immunofluorescence microscopy on EpoR-coated sheep red blood cells, MAB307 at 20 ug/ml
# Chain of biotinylated EpoR (Abbott CHO cell derived ref.#RB69084:4) (P19235 25-250 limits assumed): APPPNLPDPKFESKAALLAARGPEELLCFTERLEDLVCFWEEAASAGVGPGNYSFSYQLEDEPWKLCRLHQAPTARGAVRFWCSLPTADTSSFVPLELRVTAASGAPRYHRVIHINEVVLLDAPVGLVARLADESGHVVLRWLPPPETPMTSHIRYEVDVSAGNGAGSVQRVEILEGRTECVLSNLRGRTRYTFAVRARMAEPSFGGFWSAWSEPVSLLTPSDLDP
substance,measurement,value
murine anti-EpoR antibody (R&D Systems Cat. #MAB307),immunofluorescence score (arbitrary scale of 0-4),4 of 4
